Values of other authors as cited in paper PMC5266483.

Target: Lys14 (position 14, …)
Test: NMR
Conditions: 37 °C; Transmembrane helix in DOPC

In the case of GGALWLALALALAKALALWLAGA [GWALP23-K14 (synthetic construct; L14K)], the pKa is given as 6.5.
